# How the values were obtained:
# [1] = target: recombinant human FcγRI (human) (UniProt P12314); assay: ELISA, antibody coated on the plate, soluble FcγRI titrated (the axis is its concentration), anti-CD64 and HRP anti-mouse IgG, A450
# [2] = target: recombinant human CD40L (BioLegend Cat. #591706) (human) (UniProt P29965); assay: ELISA on coated rh CD40L; IC50 clone/IC50 5c8 x100
# Sequence of UniProt P29965 (P29965 113-261 limits assumed): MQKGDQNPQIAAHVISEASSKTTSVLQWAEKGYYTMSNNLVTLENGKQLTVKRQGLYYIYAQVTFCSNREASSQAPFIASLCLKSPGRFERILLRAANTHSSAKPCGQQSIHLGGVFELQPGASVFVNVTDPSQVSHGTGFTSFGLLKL
# Sequence of UniProt P12314 (P12314 16-288 limits assumed): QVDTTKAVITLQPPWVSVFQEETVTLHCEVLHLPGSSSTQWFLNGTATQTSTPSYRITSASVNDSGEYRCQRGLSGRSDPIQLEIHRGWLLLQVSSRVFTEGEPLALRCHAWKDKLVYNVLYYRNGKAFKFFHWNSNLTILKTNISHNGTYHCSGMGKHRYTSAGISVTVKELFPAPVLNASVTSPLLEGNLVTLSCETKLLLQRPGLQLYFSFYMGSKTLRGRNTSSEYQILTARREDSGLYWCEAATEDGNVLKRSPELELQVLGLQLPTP
EC50 (read off the curve) [1],Rel. Pot. [2],Substance
0.2 µg/mL,–,anti-CD40L antibody 5c8
–,95%,anti-CD40L antibody AT-1501

# From patent US20200223932A1
